These are literature values, as cited in article PMC3057930.

In this data set the target is CaMKIIp (UniProt Q9UQM7).
CaMKIIp, sequence (Q9UQM7 293-312): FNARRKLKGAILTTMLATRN

The term Kd denotes the free concentration of one partner at which half of the binding sites on the other are occupied at equilibrium, for simple one-to-one binding. Take “(Ca2+)2-CaM76-148 76-148 (from UniProt P0DP29)”: the Kd is 0.95 µM.
